What was measured:
ttSSB = molecular target: T1, ttSSB (Thermus thermophilus HB8, UniProt Q5SLP9 1-263); assay: pull-down
T1 sequence: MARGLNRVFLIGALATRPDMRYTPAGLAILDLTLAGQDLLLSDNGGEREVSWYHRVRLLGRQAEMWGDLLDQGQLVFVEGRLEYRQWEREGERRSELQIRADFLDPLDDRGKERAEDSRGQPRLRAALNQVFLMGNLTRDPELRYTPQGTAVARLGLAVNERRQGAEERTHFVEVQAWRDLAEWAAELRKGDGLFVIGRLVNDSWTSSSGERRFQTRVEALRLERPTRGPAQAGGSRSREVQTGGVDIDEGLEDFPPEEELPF

ttRecR = molecular target: T2, ttRecR (Thermus thermophilus HB8, UniProt Q5SHY0 1-194); assay: EMSA
T2 sequence: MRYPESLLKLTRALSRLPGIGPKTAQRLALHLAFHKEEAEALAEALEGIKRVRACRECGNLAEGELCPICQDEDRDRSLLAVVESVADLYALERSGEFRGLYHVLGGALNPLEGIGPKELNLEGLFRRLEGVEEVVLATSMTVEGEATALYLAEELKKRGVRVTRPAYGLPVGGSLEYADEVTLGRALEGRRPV

| Binder | binding result (ttSSB) | binding result (ttRecR) |
| --- | --- | --- |
| 60-mer ssDNA (ssDNA) DNA: GCCAAGCTTGCATGCCTGCAGGTCGACTCTAGAGGATCCCCGGGTACCGAGCTCGAATTC | binds |  |
| 66-mer ssDNA (ssDNA) DNA: CTTATTAAAACGGCAACTCCTCCTCCGGCGGAAAGTCTTCCAAGCCTTCGTCAATGTCCACCCCAC |  | no binding |

From PMC2248737
